{
  "source": "paper PMC3622683",
  "about": "“Purification, Gene Cloning, and Biochemical Characterization of a β-Glucosidase Capable of Hydrolyzing Sesaminol Triglucoside from Paenibacillus sp. KB0549” (PLoS ONE, 2013)",
  "proteins": {"B1": {"name": "rPSTG (recombinant PSTG, STG-hydrolyzing β-glucosidase) (Paenibacillus relictisesami) (protein)", "chain": "MSERRDLKALISQMTLEEKASLCTGRDTWHTQPIERLGIPSVMMTDGPHGLRKQKAASDHLGLFDSVPSTCFPSAVGVASSWNRDLIERMGQALGKECQAENVAVLLGPGANIKRSPLCGRNFEYFSEDPYLSSEMAAHHIMGVQSQGVGTSLKHFAANNQEYRRMTSDSVVNERTLREIYLTSFEGAVKKARPWTVMCSYNKVNGEYAAENERLLTGILKQEWGHEGFVVSDWGAVNDRVKSLAAGLELEMPHEGAGTKQIIEAVESGQLAEEKLDLAVERLLTVIFRSVDQHKEGAVYDPEAHHKLAREIAAESMVLLKNEDRILPLKREGTIAVIGELAKVPRYQGSGSSQIKPTRLDDIVFELAASAGEHARVTYTQGYDLKSDDINAVLTEEALQAAKEASVAVLFAGLPKRYESEGFDRKHMRMPDNQIALIEAVAAVQPNLVVVLCNGAPIEMPWLPQAKAVLEAYLGGQALGGAIADLLFGDANPSGKLAETFPVQLSDNPSFLNFPGEGDRVEYREGLFVGYRYYDKKQLRPLFPFGHGLSYTTFAYSNLSVDKKEILDTETLKVCVNVKNTGERAGKEIVQLYVRDVESSVIRPLKELKGFDKVFLAPGEEKTLTFELGKRSFAYYDPSIKDWMVETGAFEILIGRSSQDIVLAETVMVRSTVSRKIVYHRNSTVADLMLTEKGAAFAQKLRGMIPFGETVGEEYAEMLEAFKESVPLRGLISFSAGRFTEEDLSKLLEYLNG", "notes": "full-length 753 aa, 83,298 Da, no signal peptide; expressed from pDEST17 in E. coli BL21-AI, HisTrap purified (tag cleavage not mentioned); likely tetramer, 310 kDa; GH3"}},
  "conditions_in_all_cases": "pH 7.0, 37°C, potassium phosphate",
  "key": {"purified protein [1]": {"substrate": "O=[N+]([O-])c1ccc(O[C@@H]2O[C@H](CO)[C@@H](O)[C@H](O)[C@H]2O)cc1", "assay": "purified protein"}, "purified protein [2]": {"substrate": "O=[N+]([O-])c1ccc(O[C@@H]2O[C@H](CO)[C@H](O)[C@H](O)[C@H]2O)cc1", "assay": "purified protein"}, "[3]": {"substrate": "OC[C@H]1O[C@@H](OC[C@H]2O[C@@H](Oc3cc4c(cc3[C@H]3OC[C@H]5[C@@H]3CO[C@@H]5c3ccc5c(c3)OCO5)OCO4)[C@H](O[C@@H]3O[C@H](CO)[C@@H](O)[C@H](O)[C@H]3O)[C@@H](O)[C@@H]2O)[C@H](O)[C@@H](O)[C@@H]1O", "assay": "HPLC of STG hydrolysis, initial velocities", "type": "biochemical, Paenibacillus relictisesami", "procedure": "HPLC of STG hydrolysis, initial velocities on rPSTG (recombinant PSTG, STG-hydrolyzing β-glucosidase) | k cat and K m values of rPSTG for hydrolysis of STG were determined"}, "purified protein [4]": {"substrate": "O=[N+]([O-])c1ccc(O[C@@H]2OC[C@@H](O)[C@H](O)[C@H]2O)cc1", "assay": "purified protein", "type": "biochemical, Paenibacillus relictisesami"}, "purified protein [5]": {"substrate": "O=[N+]([O-])c1ccc(O[C@@H]2O[C@H](CO)[C@@H](O[C@@H]3O[C@H](CO)[C@@H](O)[C@H](O)[C@H]3O)[C@H](O)[C@H]2O)cc1", "assay": "purified protein", "type": "biochemical, Paenibacillus relictisesami"}},
  "data": [
    {"protein": "B1", "values": [
      {"measurement": "Km", "setting": "purified protein [1]", "result": "100 ± 10", "unit": "µM"},
      {"measurement": "kcat", "setting": "purified protein [1]", "result": 44.3, "unit": "s⁻¹"},
      {"measurement": "kcat/Km", "setting": "purified protein [1]", "result": 426000, "unit": "M⁻¹ s⁻¹"},
      {"measurement": "Km", "setting": "purified protein [2]", "result": "29000 ± 7000", "unit": "µM"},
      {"measurement": "kcat", "setting": "purified protein [2]", "result": 2.06, "unit": "s⁻¹"},
      {"measurement": "kcat/Km", "setting": "purified protein [2]", "result": 71, "unit": "M⁻¹ s⁻¹"},
      {"measurement": "Km", "setting": "[3]", "result": "1400 ± 400", "unit": "µM"},
      {"measurement": "kcat", "setting": "[3]", "result": "9.3 ± 0.8", "unit": "s⁻¹"},
      {"measurement": "Km", "setting": "purified protein [4]", "result": "35700 ± 12200", "unit": "µM"},
      {"measurement": "kcat", "setting": "purified protein [4]", "result": 69, "unit": "s⁻¹"},
      {"measurement": "kcat/Km", "setting": "purified protein [4]", "result": 1930, "unit": "M⁻¹ s⁻¹"},
      {"measurement": "Km", "setting": "purified protein [5]", "result": "230 ± 40", "unit": "µM"},
      {"measurement": "kcat", "setting": "purified protein [5]", "result": "0.47 ± 0.03", "unit": "s⁻¹"},
      {"measurement": "kcat/Km", "setting": "purified protein [5]", "result": 2040, "unit": "M⁻¹ s⁻¹"}
    ]}
  ]
}
